Results: patent publication US20250368745A1 (published 2025)

T1: human IL-18BP (human, UniProt O95998 31-194)
T1 construct: UniProt printed as 095998; also called hIL-18BP
T1 sequence: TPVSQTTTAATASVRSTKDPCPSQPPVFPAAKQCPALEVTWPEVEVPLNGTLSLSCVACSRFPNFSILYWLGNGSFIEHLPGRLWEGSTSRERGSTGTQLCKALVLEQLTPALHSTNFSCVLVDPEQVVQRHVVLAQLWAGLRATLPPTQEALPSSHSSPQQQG

B1: SA301a LC-T96V (antibody, V domains shown)
VH: QVQLQESGPGLVKPSQTLSLTCTVSGYSITSDYNSHWIRQPPGKGLEWIGYIHYSGSTNYNPSLKSRVTISRDTSKNQFSLKLSSVTAADTAVYYCARNYGSIYVNYFDYWGQGTLVTVSS
VL: EIVLTQSPATLSLSPGERATLSCSASSSVSYMYWYQQKPGQAPRPLIYRTSNLASGIPARFSGSGSGTDFTLTISSLEPEDFAVYYCQQYHSYPVFGGGTKVEIK
B2: SA301a LC-T96K (antibody, V domains shown)
VH: QVQLQESGPGLVKPSQTLSLTCTVSGYSITSDYNSHWIRQPPGKGLEWIGYIHYSGSTNYNPSLKSRVTISRDTSKNQFSLKLSSVTAADTAVYYCARNYGSIYVNYFDYWGQGTLVTVSS
VL: EIVLTQSPATLSLSPGERATLSCSASSSVSYMYWYQQKPGQAPRPLIYRTSNLASGIPARFSGSGSGTDFTLTISSLEPEDFAVYYCQQYHSYPKFGGGTKVEIK
B3: SA301a LC-T96P (antibody, V domains shown)
VH: QVQLQESGPGLVKPSQTLSLTCTVSGYSITSDYNSHWIRQPPGKGLEWIGYIHYSGSTNYNPSLKSRVTISRDTSKNQFSLKLSSVTAADTAVYYCARNYGSIYVNYFDYWGQGTLVTVSS
VL: EIVLTQSPATLSLSPGERATLSCSASSSVSYMYWYQQKPGQAPRPLIYRTSNLASGIPARFSGSGSGTDFTLTISSLEPEDFAVYYCQQYHSYPPFGGGTKVEIK
B4: SA301a HC-G55A (antibody, name in Kabat numbering, V domains shown)
VH: QVQLQESGPGLVKPSQTLSLTCTVSGYSITSDYNSHWIRQPPGKGLEWIGYIHYSASTNYNPSLKSRVTISRDTSKNQFSLKLSSVTAADTAVYYCARNYGSIYVNYFDYWGQGTLVTVSS
VL: EIVLTQSPATLSLSPGERATLSCSASSSVSYMYWYQQKPGQAPRPLIYRTSNLASGIPARFSGSGSGTDFTLTISSLEPEDFAVYYCQQYHSYPTFGGGTKVEIK
notes: IgG1 kappa
B5: SA301a HC-G55Q (antibody, name in Kabat numbering, V domains shown)
VH: QVQLQESGPGLVKPSQTLSLTCTVSGYSITSDYNSHWIRQPPGKGLEWIGYIHYSQSTNYNPSLKSRVTISRDTSKNQFSLKLSSVTAADTAVYYCARNYGSIYVNYFDYWGQGTLVTVSS
VL: EIVLTQSPATLSLSPGERATLSCSASSSVSYMYWYQQKPGQAPRPLIYRTSNLASGIPARFSGSGSGTDFTLTISSLEPEDFAVYYCQQYHSYPTFGGGTKVEIK
notes: IgG1 kappa
B6: SA301a HC-G55L (antibody, name in Kabat numbering, V domains shown)
VH: QVQLQESGPGLVKPSQTLSLTCTVSGYSITSDYNSHWIRQPPGKGLEWIGYIHYSLSTNYNPSLKSRVTISRDTSKNQFSLKLSSVTAADTAVYYCARNYGSIYVNYFDYWGQGTLVTVSS
VL: EIVLTQSPATLSLSPGERATLSCSASSSVSYMYWYQQKPGQAPRPLIYRTSNLASGIPARFSGSGSGTDFTLTISSLEPEDFAVYYCQQYHSYPTFGGGTKVEIK
notes: IgG1 kappa
B7: SA301a HC-G55H (antibody, name in Kabat numbering, V domains shown)
VH: QVQLQESGPGLVKPSQTLSLTCTVSGYSITSDYNSHWIRQPPGKGLEWIGYIHYSHSTNYNPSLKSRVTISRDTSKNQFSLKLSSVTAADTAVYYCARNYGSIYVNYFDYWGQGTLVTVSS
VL: EIVLTQSPATLSLSPGERATLSCSASSSVSYMYWYQQKPGQAPRPLIYRTSNLASGIPARFSGSGSGTDFTLTISSLEPEDFAVYYCQQYHSYPTFGGGTKVEIK
notes: IgG1 kappa
B8: SA301a HC-G55S (antibody, name in Kabat numbering, V domains shown)
VH: QVQLQESGPGLVKPSQTLSLTCTVSGYSITSDYNSHWIRQPPGKGLEWIGYIHYSSSTNYNPSLKSRVTISRDTSKNQFSLKLSSVTAADTAVYYCARNYGSIYVNYFDYWGQGTLVTVSS
VL: EIVLTQSPATLSLSPGERATLSCSASSSVSYMYWYQQKPGQAPRPLIYRTSNLASGIPARFSGSGSGTDFTLTISSLEPEDFAVYYCQQYHSYPTFGGGTKVEIK
notes: IgG1 kappa
B9: SA301a HC-G55M (antibody, name in Kabat numbering, V domains shown)
VH: QVQLQESGPGLVKPSQTLSLTCTVSGYSITSDYNSHWIRQPPGKGLEWIGYIHYSMSTNYNPSLKSRVTISRDTSKNQFSLKLSSVTAADTAVYYCARNYGSIYVNYFDYWGQGTLVTVSS
VL: EIVLTQSPATLSLSPGERATLSCSASSSVSYMYWYQQKPGQAPRPLIYRTSNLASGIPARFSGSGSGTDFTLTISSLEPEDFAVYYCQQYHSYPTFGGGTKVEIK
notes: IgG1 kappa
B10: SA301a HC-G55E (antibody, name in Kabat numbering, V domains shown)
VH: QVQLQESGPGLVKPSQTLSLTCTVSGYSITSDYNSHWIRQPPGKGLEWIGYIHYSESTNYNPSLKSRVTISRDTSKNQFSLKLSSVTAADTAVYYCARNYGSIYVNYFDYWGQGTLVTVSS
VL: EIVLTQSPATLSLSPGERATLSCSASSSVSYMYWYQQKPGQAPRPLIYRTSNLASGIPARFSGSGSGTDFTLTISSLEPEDFAVYYCQQYHSYPTFGGGTKVEIK
notes: IgG1 kappa
B11: SA301a HC-G55T (antibody, name in Kabat numbering, V domains shown)
VH: QVQLQESGPGLVKPSQTLSLTCTVSGYSITSDYNSHWIRQPPGKGLEWIGYIHYSTSTNYNPSLKSRVTISRDTSKNQFSLKLSSVTAADTAVYYCARNYGSIYVNYFDYWGQGTLVTVSS
VL: EIVLTQSPATLSLSPGERATLSCSASSSVSYMYWYQQKPGQAPRPLIYRTSNLASGIPARFSGSGSGTDFTLTISSLEPEDFAVYYCQQYHSYPTFGGGTKVEIK
notes: IgG1 kappa
B12: SA301a HC-G55D (antibody, name in Kabat numbering, V domains shown)
VH: QVQLQESGPGLVKPSQTLSLTCTVSGYSITSDYNSHWIRQPPGKGLEWIGYIHYSDSTNYNPSLKSRVTISRDTSKNQFSLKLSSVTAADTAVYYCARNYGSIYVNYFDYWGQGTLVTVSS
VL: EIVLTQSPATLSLSPGERATLSCSASSSVSYMYWYQQKPGQAPRPLIYRTSNLASGIPARFSGSGSGTDFTLTISSLEPEDFAVYYCQQYHSYPTFGGGTKVEIK
notes: IgG1 kappa
B13: SA301a HC-G55R (antibody, name in Kabat numbering, V domains shown)
VH: QVQLQESGPGLVKPSQTLSLTCTVSGYSITSDYNSHWIRQPPGKGLEWIGYIHYSRSTNYNPSLKSRVTISRDTSKNQFSLKLSSVTAADTAVYYCARNYGSIYVNYFDYWGQGTLVTVSS
VL: EIVLTQSPATLSLSPGERATLSCSASSSVSYMYWYQQKPGQAPRPLIYRTSNLASGIPARFSGSGSGTDFTLTISSLEPEDFAVYYCQQYHSYPTFGGGTKVEIK
notes: IgG1 kappa
B14: SA301a HC-G55K (antibody, name in Kabat numbering, V domains shown)
VH: QVQLQESGPGLVKPSQTLSLTCTVSGYSITSDYNSHWIRQPPGKGLEWIGYIHYSKSTNYNPSLKSRVTISRDTSKNQFSLKLSSVTAADTAVYYCARNYGSIYVNYFDYWGQGTLVTVSS
VL: EIVLTQSPATLSLSPGERATLSCSASSSVSYMYWYQQKPGQAPRPLIYRTSNLASGIPARFSGSGSGTDFTLTISSLEPEDFAVYYCQQYHSYPTFGGGTKVEIK
notes: IgG1 kappa
B15: SA301a HC-G55V (antibody, name in Kabat numbering, V domains shown)
VH: QVQLQESGPGLVKPSQTLSLTCTVSGYSITSDYNSHWIRQPPGKGLEWIGYIHYSVSTNYNPSLKSRVTISRDTSKNQFSLKLSSVTAADTAVYYCARNYGSIYVNYFDYWGQGTLVTVSS
VL: EIVLTQSPATLSLSPGERATLSCSASSSVSYMYWYQQKPGQAPRPLIYRTSNLASGIPARFSGSGSGTDFTLTISSLEPEDFAVYYCQQYHSYPTFGGGTKVEIK
notes: IgG1 kappa
B16: SA301a HC-G55F (antibody, name in Kabat numbering, V domains shown)
VH: QVQLQESGPGLVKPSQTLSLTCTVSGYSITSDYNSHWIRQPPGKGLEWIGYIHYSFSTNYNPSLKSRVTISRDTSKNQFSLKLSSVTAADTAVYYCARNYGSIYVNYFDYWGQGTLVTVSS
VL: EIVLTQSPATLSLSPGERATLSCSASSSVSYMYWYQQKPGQAPRPLIYRTSNLASGIPARFSGSGSGTDFTLTISSLEPEDFAVYYCQQYHSYPTFGGGTKVEIK
notes: IgG1 kappa

What follows are binders tested against T1, human IL-18BP (assay: BLI, apparent KD).
Work on B1 yielded a Kd of 0.21 nM. B2 showed a Kd of 0.05 nM. B3 showed a Kd of 0.26 nM.

Target: T1, human IL-18BP
Experiment: BLI, apparent KD
Remark: another data set of the same source
With B4 the Kd was 0.75 nM. B5 was tested, and the Kd was 0.79 nM. Work on B6 yielded a Kd of 1.72 nM. B7 showed a Kd of 1.31 nM. B8 gave a Kd of 0.51 nM. B9 was tested, and the Kd was 0.84 nM. B10 showed a Kd of 0.4 nM. B11 showed a Kd of 1 nM. In the case of B12, the Kd is reported as 1.37 nM. For B13, the Kd was 0.75 nM. In the case of B14, the Kd is reported as 1.04 nM. With B15 the Kd was 0.44 nM. B16 was tested, and the Kd was 1.17 nM.
